Source: the supplement of paper PMC9170038

Tested on: MS2 coat protein
Assay: apparent KD of MS2 coat protein; designed switch direction (-1 OFF switch, 1 ON switch): -1; higher = weaker reporter binding
Method in brief: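 Designed RNA switches sharing common flanks were transcribed on Illumina chips by stalled E. coli RNA polymerase. They were titrated with SNAP-549-labelled MS2 coat protein, from 0.7 or 1.5 nM doubling to 3 µM, in Tris-HCl pH 7.5 buffer with KCl, MgCl2, BSA, DTT, tRNA and Tween-20. Titrations ran without input, with 200 uM small-molecule ligand, or with an oligonucleotide input. The apparent KD of each design is the median over its clusters, after curve-fitting of normalised cluster fluorescence.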

[1] = input ligand: microRNA oligo, concentration not stated
[2] = Eterna round: R95, input ligand: FMN 200 uM
[3] = Eterna round: R95, input ligand: microRNA oligo, concentration not stated
[4] = Eterna round: R95, input ligand: none

Row | Sequence | apparent KD of MS2 coat protein (input ligand: FMN 200 uM) [nM] | apparent KD of MS2 coat protein [1] [nM] | apparent KD of MS2 coat protein (input ligand: none) [nM] | apparent KD of MS2 coat protein [2] [nM] | apparent KD of MS2 coat protein [3] [nM] | apparent KD of MS2 coat protein [4] [nM]
1 | AGCUAGUGCCGAGGAUAUACAUGAGGAUCACCCAUGUAAGGCAGUCGGUUUCUGACUGCCAAUAUGUAGAAGGCGGCGUUGGCA [JL ENG2 1.48] (Eterna round: R96, puzzle: Exclusion NG 2) | 45.4 | 15.8 | 15.7 | – | – | –
2 | GCUAAACAUGUAGGAUAUGCGUGGCGAAGCUAUGCAGAAGGACAUGAGGAUCACCCAUGUUUUAGCGUCUGCGUACAGAUGCGU [JL ENG1 1.43] (Eterna round: R96, puzzle: Exclusion NG 1) | 318 | 28 | 31.6 | – | – | –
3 | CACCGUUACUGAGGAUAUCGUACAUGAGGAUCACCCAUGUAAUAAAUGAGAAUUUCGGAUGUAUGCGAGAAGGCAGGAAUCGGC [Ostracism 36 - Jieux - Exclusion NG 2] (Eterna round: R96, puzzle: Exclusion NG 2) | 31.6 | 19.5 | 32.2 | – | – | –
4 | CCAGCGUAUGUGAGGAUAUGCUGGUCCUUGGAUCAGCAGAAGGCACAUGAGGAUCACCCAUGUGGUGACGUUGG [JL bmx4 3.44] (puzzle: Brourd's mod of Exclusion 4) | – | – | – | 19.1 | 143 | 411
5 | AAACCCUGAGGAUAUACAUAACAACAAAUCCUCACGUGCCAACAUGAGGAUCACCCAUGUAGAAGGCAGGCCAA [Mod R3 Insanara 5 - Jieux - Exclusion 2] (Eterna round: R97, puzzle: Exclusion 2) | 49.2 | – | 15.8 | – | – | –
6 | CUAGUGUAAGGAUAUGCCUGGCCGUGAGGCCAGAUUGAAUAGCAGAAGGUACAUGAGGAUCACCCAUGUACGGG [jl-ex4-4.62 ViennaUCT mod] (Eterna round: R97, puzzle: Exclusion 4) | 279 | – | 26.4 | – | – | –
7 | AUCGUGUGAGGAUAUCGAUCAUGGAGGUCUAGGUCCAUGCGCGAGAAGGCACAUGAGGAUCACCCAUGUAAUGG [jl-ex4-4.30 ViennaUCT mod] (Eterna round: R97, puzzle: Exclusion 4) | 65.3 | – | 66.5 | – | – | –
8 | GUCGUGCGGCUUUGCUGUACGAGUACAUGAGGAUCACCCAUGUAGGAUAUGGUUCGUUUUGCGUGCUAGAAGGGCGUGCGUUUU [Excl-NG3-LRO16] (Eterna round: R96, puzzle: Exclusion NG 3) | 22.4 | 17.3 | 22.1 | – | – | –
9 | GAAUUAAUUAAUUAAUAAUACAUGAGGAUCACCCAUGUAGAUCCUACAUACAAGCUAAGUAGCUCGUCUUAUAAUUA [Stov1/2-A2] (Eterna round: R97, puzzle: Sensor, turn-off variant 1) | 313 | – | 261 | – | – | –
10 | ACGUACUCUGUAGGAUAUCGAUGAUGCAUGAUUCGAGAAGGACAUGAGGAUCACCCAUGUUUCAAAAGCAUACUAUGUGUAGUA [Design #2] (Eterna round: R96, puzzle: Exclusion NG 1) | 44.4 | 13.6 | 20.9 | – | – | –
11 | GUCAGCUCGUCAGGAUAUAUAUACAUGAGGAUCACCCAUGUAAGAUCAGGCUUCGGCCAAUGUAUAUAGAAGGGACGAGCUGAU [ENG2/11-B2] (Eterna round: R96, puzzle: Exclusion NG 2) | 721 | 458 | 810 | – | – | –
12 | GUGGUGACAGGAUAUACAUGAGGAUCACCCAUGUGAGGAGGACGAGACAGGUGAAGGAGUAGAAGGGUCAGAGG [JR_Exclu3_Sub027] (puzzle: Exclusion 3) | – | – | – | 66.7 | 74.5 | 60.3
13 | AACCUGAGGCAAAGCUUUAGGUGUACAUGAGGAUCACCCAUGUAGGAUAUGGUAAGCAAAGCUUACCAGAAGGACAUAAUGAUG [Mat - Exclusion NG 3 - Mod of JL - D48] (Eterna round: R96, puzzle: Exclusion NG 3) | 134 | 70.1 | 90.2 | – | – | –
14 | CAUAUAGUAGUGAGGAUAUGCGAAUAUAUAAUUAAGUAGAAGGCACAUGAGGAUCACCCAUGUAUAUUGUAAAG [EX-4 Malc] (puzzle: Brourd's mod of Exclusion 4) | – | – | – | – | 18.9 | –
15 | AAGAACUUAGGAUAUACAUGAGGAUCACCCAUGUAGCUUCACUUGGGCCUGAGCCCGUGUAGAAGGAAGAAAAU [Arge] (Eterna round: R96, puzzle: Exclusion 3) | 68.3 | 47.6 | 73.5 | – | – | –
16 | CAGUACUGAGGAUAUACAUGAGGAUCACCCAUGUGUUCCAGCUAGGAAACUAGCAUAUGUAGAAGGCAGUACUG [Eli x3 4.06] (Eterna round: R97, puzzle: Exclusion 3) | 578 | – | 298 | – | – | –
17 | AGCGCCAUCGUGAGAUGGCGUAUUACAUGAGGAUCACCCAUGUAGGAUAUCGAUUGCUUUGCAGUCGAGAAGGACAUGUUUUAG [JL ENG3 3.80 Mod E] (Eterna round: R96, puzzle: Exclusion NG 3) | 200 | 69.4 | 74.3 | – | – | –

Row | Sequence | apparent KD of MS2 coat protein (input ligand: FMN 200 uM) [nM] | apparent KD of MS2 coat protein [1] [nM] | apparent KD of MS2 coat protein (input ligand: none) [nM] | apparent KD of MS2 coat protein [2] [nM] | apparent KD of MS2 coat protein [3] [nM] | apparent KD of MS2 coat protein [4] [nM]
18 | UUCUAUUCAGGAUAUACAUGAGGAUCACCCAUGUGAUUUGCCUCGCGGAAGACUAGACGUAGAAGGGAGUCCCU [Eternabot (L2) Solution 7] (Eterna round: R97, puzzle: Exclusion 3) | 91.3 | – | 111 | – | – | –
19 | AGGUAACAUGAGGAUCACCCAUGUCAGGAUAUCAGUAAGAUGAGUAUAGAAGAGAGUAUGAGAAGGGACUAUAU [Excluse me! 25 - Jieux - Exclusion 1] (puzzle: Exclusion 1) | – | – | – | – | 31.2 | –
20 | UCAACCAGAGGAUAUGCGCAUAGAUCAGACUUUGUUUCUGAACAUGAGGAUCACCCAUGUAGAAGGCUGUAACC [Ex2 #78] (Eterna round: R97, puzzle: Exclusion 2) | 28.5 | – | 27.1 | – | – | –
21 | CGGUGCUUGUGGAAACAUGAGGAUCACCCAUGUUGAGUUAGCGAGGAUAUCGGUAACACAUGUCACGAGAAGGCGCGAACCAGA [Ex NG3 #33] (Eterna round: R96, puzzle: Exclusion NG 3) | 39.6 | 18.1 | 16.2 | – | – | –
22 | AGCUGUGGCCGAGGAUAUCUAUCUCCAAUAACCGAAAUAUAAUCGGACAUGAGGAUCACCCAUGUAGAGAAGGCGGUCUCAGCA [Eli eng2 - 090] (Eterna round: R96, puzzle: Exclusion NG 2) | – | 15 | – | – | – | –
23 | CUUUUGUGAGGAUAUUAUUAGUAAAUAAAUAAAAUUACUACUGAGAAGGCACAUGAGGAUCACCCAUGUUCCUC [salish99_ex4_r3_048] (puzzle: Exclusion 4) | – | – | – | – | 28.8 | –
24 | GCACGGUAAGUGAGGAUAUACCUCUGGAUACAGAGGUAGAAGGCACAUGAGGAUCACCCAUGUUCCUGCCGUGC [Fiskers BMX 4 - 89] (puzzle: Brourd's mod of Exclusion 4) | – | – | – | – | 15.9 | –
25 | UGACGUCAUGUCAGGAUAUAGGCGAUGCGUGUCUUCUAGAAGGGACAUGAGGAUCACCCAUGUAAACUUUUGGU [Eternabot (L1) Solution 56] (Eterna round: R97, puzzle: Brourd's mod of Exclusion 4) | 136 | – | 148 | – | – | –
26 | UAUAUGUGAGGAUAUCAGGUGUGCUAGCGUACUGGUACAUCUGAGAAGGCACAUGAGGAUCACCCAUGUUUCUU [JL-ex4-3.24 Brourd mod] (puzzle: Exclusion 4) | – | – | – | – | 24.4 | –
27 | GAAAACGUAGGAUAUUAAUACUUAGACAUGAGGAUCACCCAUGUUUGGUGGGUUUAAGAAUGAGAAGGGCGAUGAA [EX5 #7] (Eterna round: R97, puzzle: Exclusion 5) | 222 | – | 189 | – | – | –
28 | GAAAACGAAGAGGAUAUUUGAUAUCAUAGCUUCAAAGAAGGCUUCACAUGAGGAUCACCCAUGUGAUCUUCAAU [Mat - Exclusion 6 - JL Mod - D19] (Eterna round: R97, puzzle: Exclusion 6) | 116 | – | 23.8 | – | – | –
29 | GCACGGAGUGUAGGAUAUCUGUGCGAUUAGCUCAGAGAAGGACACAUGAGGAUCACCCAUGUGUAACUCAAUACUAAUCCGUGC [Eli exng1 - 077] (Eterna round: R96, puzzle: Exclusion NG 1) | 10.6 | 7.89 | 10.7 | – | – | –
30 | AGCCACAGAGGAUAUACAUACAUCCAGUAGUAAAGAAUACUACAUGAGGAUCACCCAUGUAGAAGGCUGUGGCA [Omei Ex2 BD B13] (Eterna round: R97, puzzle: Exclusion 2) | 308 | – | 86.4 | – | – | –
31 | GUUGUUUAUGUAGGAUAUGCCUGGCGUGCCUUUGCAGAAGGACAUGAGGAUCACCCAUGUAUUGCGGUCUGCGUUCAGAUCGCC [salish99_ExNG1_r4_041] (Eterna round: R96, puzzle: Exclusion NG 1) | 33.1 | 19.1 | 25.2 | – | – | –
32 | GCGAAAGCAAGCAAGUGAAACAUGAGGAUCACCCAUGUCCUCGUUUGCUCGUCUUAUAAGCUAUGCGAAAGCAUAGC [Sensor 3, v1 - 4] (puzzle: Sensor v3, turn-off variant 1) | – | – | – | 12.9 | 105 | 10.2
33 | UCAUGGUAGCAGGAUAUGCUAUUUAUUUUUUAUGCAGAAGGGCUUACAUGAGGAUCACCCAUGUGUUAGGUUUA [JR_E6_Sub072] (puzzle: Exclusion 6) | – | – | – | – | 81.3 | –
34 | AGUAAGCUAGGAUAUGCUUUGGGAAAGCAUUCCUUCGAUAAACUUGAGGAUCACCCAAGUAGAAGGAGCUUACC [salish99_ex2_r4_002] (Eterna round: R97, puzzle: Exclusion 2) | 13.4 | – | 12.4 | – | – | –
